The supplement of paper PMC10126150
± gives the standard deviation of the averaged measurements.

System: ATP
Experiment: switch fluorescence ratio, 500 uM ATP over buffer (Cy3 cluster intensity, sum of 5 cycles each) (fold (ratio)); higher = stronger signal-on switching upon ATP binding; sequences stand for … in TCGTCGGCAGCGTCAGATGTGTATAAGAGACAGTTTTTTTTTTTTTTTTTTTTTTTTT…TC
Details: aptamer strand: ATP DNA aptamer (quencher-CACCTGGGGGAGTATTGCGGAGGAAGG + anchor), 100 nM annealed; ATP concentration: 500 uM
Outline: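 The fluorescence ratio divides summed target-cycle Cy3 intensity by summed buffer-cycle Cy3 intensity for each cluster and is averaged per switch-domain sequence. Cy3-labelled switching-strand clusters on a modified Illumina MiSeq flow-cell were annealed to 100 nM quencher-labelled ATP aptamer, then imaged in selection buffer and again after 15 min with 500 uM ATP at 22 °C. Five such cycles were run, with NaOH stripping and re-annealing between them, and clusters outside 100-1000 RFU were excluded.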
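Also: ATP exposure 15 min at 22 °C before imaging.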

Sequence	switch fluorescence ratio
TTTTAAGGCT	0.982 ± 0.024
TTTTAAGGTG	1.39 ± 0.055
TTTTAATACT	1.04 ± 0.066
TTTTAATAGC	1 ± 0.028
TTTTAATGCG	1.04 ± 0.012
TTTTAATGGA	1.03 ± 0.029
TTTTAATGGG	0.999 ± 0.02
TTTTAATGTC	0.984 ± 0.027
TTTTAATTGA	1.02 ± 0.031
TTTTAATTGT	1.08 ± 0.083
TTTTACACTT	1.04 ± 0.017
TTTTACGCT	1.03 ± 0.06
TTTTACGCTG	1 ± 0.036
TTTTACGGGT	1.02 ± 0.087
TTTTACTAAA	1.06 ± 0.036
TTTTAGACAG	1.01 ± 0.017
TTTTAGACGT	0.991 ± 0.022
TTTTAGAGAT	1.02 ± 0.038
TTTTAGATTG	0.987 ± 0.028
TTTTAGGACA	0.99977 ± 0.00081
TTTTAGGTAA	0.9745 ± 0.0034
TTTTAGGTGA	1.07 ± 0.025
TTTTAGGTGG	0.98 ± 0.067

Sequence	switch fluorescence ratio
TTTTAGTAGC	1.04 ± 0.0058
TTTTAGTATT	0.9973 ± 0.0091
TTTTAGTTT	0.996 ± 0.023
TTTTATAAAA	1.03 ± 0.019
TTTTATACTT	1 ± 0.011
TTTTATAGTG	0.984 ± 0.033
TTTTATATAT	1.014 ± 0.0079
TTTTATCCA	1.016 ± 0.0095
TTTTATCCCC	1.08 ± 0.1
TTTTATGGCA	1.02 ± 0.021
TTTTATGTGG	1.01 ± 0.04
TTTTATGTT	0.978 ± 0.018
TTTTCAAAGC	1.67 ± 0.84
TTTTCAAGTT	1.21 ± 0.38
TTTTCAATTG	1.01 ± 0.027
TTTTCACGGT	1.01 ± 0.021
TTTTCAGCTG	1.03 ± 0.016
TTTTCAGTTT	1.022 ± 0.01
TTTTCATAAC	1 ± 0.051
TTTTCATTGG	0.985 ± 0.026
TTTTCATTTG	1.01 ± 0.034
TTTTCCAGCC	1.04 ± 0.036
TTTTCCAGGT	1.83 ± 0.42

Sequence	switch fluorescence ratio
TTTTCCATTG	1.01 ± 0.021
TTTTCCGACA	2.28 ± 1.5
TTTTCCGCGC	2.08 ± 0.47
TTTTCCGGTT	1.23 ± 0.42
TTTTCCGTTC	1.02 ± 0.021
TTTTCCTCTT	1.02 ± 0.014
TTTTCGAATT	0.991 ± 0.015
TTTTCGAGCT	1.006 ± 0.0095
TTTTCGAGGT	1.17 ± 0.24
TTTTCGCCAC	2.35 ± 1.3
TTTTCGCTGT	1.02 ± 0.016
TTTTCGGACA	1.033 ± 0.0027
TTTTCGGGCG	0.944 ± 0.017
TTTTCGGTAG	0.989 ± 0.027
TTTTCGGTCG	0.999 ± 0.046
TTTTCGTGGC	0.989 ± 0.1
TTTTCGTTGT	0.996 ± 0.018
TTTTCTACCC	1.03 ± 0.059
TTTTCTAGGT	0.982 ± 0.021
TTTTCTCAGC	1.05 ± 0.029
TTTTCTCTCA	1.01 ± 0.02
TTTTCTGACC	1.02 ± 0.012
TTTTCTGCCT	1.07 ± 0.089

Sequence	switch fluorescence ratio
TTTTCTTTGG	1.03 ± 0.077
TTTTGAAATA	0.997 ± 0.017
TTTTGAACGC	1.065 ± 0.0016
TTTTGAAGTC	1.03 ± 0.092
TTTTGAGACT	0.96 ± 0.0084
TTTTGAGAGA	1.11 ± 0.25
TTTTGAGAGG	0.983 ± 0.036
TTTTGAGATT	0.995 ± 0.011
TTTTGAGCGG	1.04 ± 0.015
TTTTGAGTCG	1.01 ± 0.033
TTTTGAGTTC	1.035 ± 0.0057
TTTTGATACG	0.996 ± 0.041
TTTTGATCAT	0.98 ± 0.013
TTTTGATCGT	0.962 ± 0.023
TTTTGATGAC	1.01 ± 0.047
TTTTGATTAT	0.978 ± 0.034
TTTTGCACCG	1.02 ± 0.053
TTTTGCCAGT	1.11 ± 0.23
TTTTGCCGAT	0.989 ± 0.023
TTTTGCCTTA	1.007 ± 0.0063
TTTTGCGAAT	0.996 ± 0.018
TTTTGCGGCG	1.25 ± 0.29
TTTTGCGGTG	1.01 ± 0.017

Sequence	switch fluorescence ratio
TTTTGCGTTT	0.992 ± 0.07
TTTTGCTATT	1.03 ± 0.013
TTTTGGACAT	0.993 ± 0.029
TTTTGGAGAA	1.02 ± 0.037
TTTTGGAGAT	1.01 ± 0.027
TTTTGGAGGA	1.02 ± 0.019
TTTTGGAGTT	0.998 ± 0.035
TTTTGGATCG	1 ± 0.012
TTTTGGATTT	0.993 ± 0.018
TTTTGGCAGG	1.03 ± 0.037
TTTTGGCAGT	1.09 ± 0.013
TTTTGGCCAT	0.995 ± 0.082
TTTTGGCCTA	1.01 ± 0.029
TTTTGGCGGC	0.9504 ± 0.0056
TTTTGGCTTG	0.9884 ± 0.0012
TTTTGGGACC	0.992 ± 0.037
TTTTGGGATA	1.03 ± 0.025
TTTTGGGATC	0.996 ± 0.016
TTTTGGGCCA	1.04 ± 0.018
TTTTGGGGAG	1.02 ± 0.029
TTTTGGGGAT	1.01 ± 0.026
TTTTGGGGGT	1.03 ± 0.096
TTTTGGTAAT	1.01 ± 0.014

Sequence	switch fluorescence ratio
TTTTGGTGAG	0.972 ± 0.025
TTTTGGTGGG	0.9972 ± 0.0074
TTTTGGTTAT	1.01 ± 0.03
TTTTGTAAGG	1.011 ± 0.0043
TTTTGTATCG	0.948 ± 0.052
TTTTGTCAAG	1.01 ± 0.033
TTTTGTCAAT	1.1 ± 0.13
TTTTGTCGGT	0.9667 ± 0.0042
TTTTGTGGAA	0.998 ± 0.027
TTTTGTGGGA	1.01 ± 0.031
TTTTGTGGTT	1.02 ± 0.065
TTTTGTGTTA	0.997 ± 0.033
TTTTGTTATG	0.9903 ± 0.0085
TTTTGTTCGG	0.99 ± 0.029
TTTTGTTGGG	0.991 ± 0.03
TTTTGTTGTA	0.996 ± 0.024
TTTTGTTGTT	0.995 ± 0.035
TTTTGTTTAT	1.01 ± 0.058
TTTTGTTTCT	0.992 ± 0.027
TTTTGTTTTA	1 ± 0.015
TTTTTAAAAA	1.01 ± 0.059
TTTTTAAAGC	0.995 ± 0.038
TTTTTAACGG	1.01 ± 0.024

Sequence	switch fluorescence ratio
TTTTTAAGCA	1.02 ± 0.034
TTTTTAAGGC	1.02 ± 0.032
TTTTTAAGTC	0.985 ± 0.026
TTTTTAATCC	1.05 ± 0.017
TTTTTACATC	1 ± 0.021
TTTTTACCCT	1.08 ± 0.067
TTTTTACGGA	1.02 ± 0.043
TTTTTACGGG	1.02 ± 0.043
TTTTTACTGC	0.997 ± 0.029
TTTTTAGAAT	0.993 ± 0.027
TTTTTAGAGT	0.985 ± 0.026
TTTTTAGCGT	0.995 ± 0.027
TTTTTAGGAG	1 ± 0.035
TTTTTAGGTC	1.1 ± 0.21
TTTTTAGGTG	1.27 ± 0.2
TTTTTAGTAG	1.01 ± 0.03
TTTTTATATG	0.999 ± 0.02
TTTTTATCAA	1.01 ± 0.041
TTTTTATCGG	1.01 ± 0.024
